Data reported in the supplement of paper PMC7125110.
± gives the standard error. For some of these results: Variants at the floor of the assay were thinned out.

B1: glmS ribozyme (parent)
chain: AUAAAAGCGCCAGAACUACAGAAAUGUAGUUGACGAGGAGGAGGUUUAUCGAAUUUUCGGCGGAUGCCUCCAAA

Legend:
Conditions in all cases: with glucosamine-6-phosphate
glucosamine-6-phosphate [1] = variants of: B1; assay: kcat; higher = faster cleavage; RNA array
Summary of the method: (§1)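 The measurements used barcoded ribozyme variants on sequenced MiSeq chips, transcribed in situ by E. coli RNA polymerase and tracked at 37 °C with a hybridised Cy3 probe. Glucosamine-6-phosphate, 40 μM to 10 mM in HEPES/KCl/Mg(OAc)2 buffer, was flowed in while tiles were imaged over ~14 h. Baseline-normalised signals, also normalised to non-cleaving reference variants, gave per-tile medians that were fit to one- or two-exponential decays for kobs. kcat and KM resulted from weighted Michaelis–Menten fits across concentrations.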

glucosamine-6-phosphate [2] = variants of: B1; assay: KM; higher = weaker cofactor use; RNA array
Summary of the method: as §1

glucosamine-6-phosphate [3] = variants of: B1; assay: self-cleavage kobs at 40 uM GlcN6P; higher = faster cleavage; RNA array
Summary of the method: as §1

glucosamine-6-phosphate [4] = variants of: B1; assay: self-cleavage kobs at 10000 uM GlcN6P; higher = faster cleavage; RNA array
Summary of the method: as §1

glucosamine-6-phosphate [5] = variants of: B1; assay: self-cleavage kobs at 640 uM GlcN6P; higher = faster cleavage; RNA array
Summary of the method: as §1

glucosamine-6-phosphate [6] = variants of: B1; assay: self-cleavage kobs at 2500 uM GlcN6P; higher = faster cleavage; RNA array
Summary of the method: as §1

glucosamine-6-phosphate [7] = variants of: B1; assay: self-cleavage kobs at 160 uM GlcN6P; higher = faster cleavage; RNA array
Summary of the method: as §1

A14G A42G A53G
kcat (glucosamine-6-phosphate [1]): 0.0447 ± 0.015 s⁻¹ | KM (glucosamine-6-phosphate [2]): 781 ± 340 µM | self-cleavage kobs at 40 uM GlcN6P (glucosamine-6-phosphate [3]): 0.00216 ± 0.00072 s⁻¹ | self-cleavage kobs at 10000 uM GlcN6P (glucosamine-6-phosphate [4]): 0.0405 ± 0.019 s⁻¹

G13U G29A
kcat (glucosamine-6-phosphate [1]): 0.000411 ± 4.9e-05 s⁻¹ | KM (glucosamine-6-phosphate [2]): 6480 ± 1300 µM | self-cleavage kobs at 640 uM GlcN6P (glucosamine-6-phosphate [5]): 3.19e-05 ± 1.3e-05 s⁻¹ | self-cleavage kobs at 2500 uM GlcN6P (glucosamine-6-phosphate [6]): 0.000121 ± 2.2e-05 s⁻¹ | self-cleavage kobs at 10000 uM GlcN6P (glucosamine-6-phosphate [4]): 0.000246 ± 4.2e-05 s⁻¹

U30C C58A
kcat (glucosamine-6-phosphate [1]): 2.21e-05 ± 6e-06 s⁻¹ | self-cleavage kobs at 2500 uM GlcN6P (glucosamine-6-phosphate [6]): 2.92e-05 ± 1.1e-05 s⁻¹

G37A U46G
kcat (glucosamine-6-phosphate [1]): 0.000363 ± 0.00014 s⁻¹ | self-cleavage kobs at 160 uM GlcN6P (glucosamine-6-phosphate [7]): 4.31e-05 ± 1.7e-05 s⁻¹ | self-cleavage kobs at 640 uM GlcN6P (glucosamine-6-phosphate [5]): 0.000102 ± 1.4e-05 s⁻¹ | self-cleavage kobs at 2500 uM GlcN6P (glucosamine-6-phosphate [6]): 0.000159 ± 2.3e-05 s⁻¹ | self-cleavage kobs at 10000 uM GlcN6P (glucosamine-6-phosphate [4]): 0.000421 ± 6.2e-05 s⁻¹

C11U A53U U54C C58A
kcat (glucosamine-6-phosphate [1]): 1.72e-05 ± 2.3e-06 s⁻¹ | self-cleavage kobs at 640 uM GlcN6P (glucosamine-6-phosphate [5]): < 1e-05 s⁻¹

G29C U46G
kcat (glucosamine-6-phosphate [1]): 0.000315 ± 9.7e-05 s⁻¹ | self-cleavage kobs at 640 uM GlcN6P (glucosamine-6-phosphate [5]): 7.38e-05 ± 2.1e-05 s⁻¹ | self-cleavage kobs at 2500 uM GlcN6P (glucosamine-6-phosphate [6]): 0.000285 ± 7.3e-05 s⁻¹ | self-cleavage kobs at 10000 uM GlcN6P (glucosamine-6-phosphate [4]): 0.000234 ± 7.5e-05 s⁻¹

G29C U46C
kcat (glucosamine-6-phosphate [1]): 9.55e-05 ± 4.5e-06 s⁻¹ | KM (glucosamine-6-phosphate [2]): 535 ± 120 µM | self-cleavage kobs at 640 uM GlcN6P (glucosamine-6-phosphate [5]): 5.09e-05 ± 1.5e-05 s⁻¹ | self-cleavage kobs at 2500 uM GlcN6P (glucosamine-6-phosphate [6]): 8.67e-05 ± 2.2e-05 s⁻¹ | self-cleavage kobs at 10000 uM GlcN6P (glucosamine-6-phosphate [4]): 8.84e-05 ± 1.4e-05 s⁻¹

G13C C68U
kcat (glucosamine-6-phosphate [1]): < 1e-05 s⁻¹ | self-cleavage kobs at 40 uM GlcN6P (glucosamine-6-phosphate [3]): < 1e-05 s⁻¹ | self-cleavage kobs at 160 uM GlcN6P (glucosamine-6-phosphate [7]): < 1e-05 s⁻¹ | self-cleavage kobs at 640 uM GlcN6P (glucosamine-6-phosphate [5]): < 1e-05 s⁻¹

A12C G37C
kcat (glucosamine-6-phosphate [1]): 8.54e-05 ± 2.4e-06 s⁻¹ | KM (glucosamine-6-phosphate [2]): 6970 ± 420 µM | self-cleavage kobs at 2500 uM GlcN6P (glucosamine-6-phosphate [6]): 2.27e-05 ± 8.6e-06 s⁻¹ | self-cleavage kobs at 10000 uM GlcN6P (glucosamine-6-phosphate [4]): 5.03e-05 ± 7.5e-06 s⁻¹

A64G G66A
kcat (glucosamine-6-phosphate [1]): 0.0158 ± 0.0059 s⁻¹ | KM (glucosamine-6-phosphate [2]): 936 ± 460 µM | self-cleavage kobs at 40 uM GlcN6P (glucosamine-6-phosphate [3]): 0.000837 ± 9.3e-05 s⁻¹ | self-cleavage kobs at 160 uM GlcN6P (glucosamine-6-phosphate [7]): 0.00197 ± 0.00028 s⁻¹ | self-cleavage kobs at 640 uM GlcN6P (glucosamine-6-phosphate [5]): 0.00554 ± 0.0008 s⁻¹ | self-cleavage kobs at 2500 uM GlcN6P (glucosamine-6-phosphate [6]): 0.0124 ± 0.0025 s⁻¹ | self-cleavage kobs at 10000 uM GlcN6P (glucosamine-6-phosphate [4]): 0.0215 ± 0.0052 s⁻¹

C8U C11U C34G A36U
kcat (glucosamine-6-phosphate [1]): 1.07e-05 ± 9.9e-07 s⁻¹ | self-cleavage kobs at 160 uM GlcN6P (glucosamine-6-phosphate [7]): < 1e-05 s⁻¹

A15C A39U
kcat (glucosamine-6-phosphate [1]): 0.00476 ± 0.00092 s⁻¹ | KM (glucosamine-6-phosphate [2]): 2170 ± 610 µM | self-cleavage kobs at 40 uM GlcN6P (glucosamine-6-phosphate [3]): 0.000106 ± 1.2e-05 s⁻¹ | self-cleavage kobs at 160 uM GlcN6P (glucosamine-6-phosphate [7]): 0.000264 ± 5e-05 s⁻¹ | self-cleavage kobs at 640 uM GlcN6P (glucosamine-6-phosphate [5]): 0.000744 ± 0.00036 s⁻¹ | self-cleavage kobs at 2500 uM GlcN6P (glucosamine-6-phosphate [6]): 0.00216 ± 0.00041 s⁻¹ | self-cleavage kobs at 10000 uM GlcN6P (glucosamine-6-phosphate [4]): 0.00417 ± 0.00045 s⁻¹

C11U A39U
kcat (glucosamine-6-phosphate [1]): 0.00145 ± 0.00027 s⁻¹ | KM (glucosamine-6-phosphate [2]): 3780 ± 1200 µM | self-cleavage kobs at 160 uM GlcN6P (glucosamine-6-phosphate [7]): 4.38e-05 ± 1.1e-05 s⁻¹ | self-cleavage kobs at 640 uM GlcN6P (glucosamine-6-phosphate [5]): 0.000277 ± 4.8e-05 s⁻¹ | self-cleavage kobs at 2500 uM GlcN6P (glucosamine-6-phosphate [6]): 0.000641 ± 0.00011 s⁻¹ | self-cleavage kobs at 10000 uM GlcN6P (glucosamine-6-phosphate [4]): 0.00102 ± 0.00011 s⁻¹

U46C U47G
kcat (glucosamine-6-phosphate [1]): 0.0024 ± 0.00028 s⁻¹ | KM (glucosamine-6-phosphate [2]): 2600 ± 440 µM | self-cleavage kobs at 40 uM GlcN6P (glucosamine-6-phosphate [3]): 3.18e-05 ± 8e-06 s⁻¹ | self-cleavage kobs at 160 uM GlcN6P (glucosamine-6-phosphate [7]): 0.00015 ± 2.6e-05 s⁻¹ | self-cleavage kobs at 640 uM GlcN6P (glucosamine-6-phosphate [5]): 0.000457 ± 8e-05 s⁻¹ | self-cleavage kobs at 2500 uM GlcN6P (glucosamine-6-phosphate [6]): 0.0014 ± 0.00026 s⁻¹ | self-cleavage kobs at 10000 uM GlcN6P (glucosamine-6-phosphate [4]): 0.00183 ± 0.00026 s⁻¹

U49A C67U
kcat (glucosamine-6-phosphate [1]): < 1e-05 s⁻¹ | self-cleavage kobs at 40 uM GlcN6P (glucosamine-6-phosphate [3]): < 1e-05 s⁻¹ | self-cleavage kobs at 10000 uM GlcN6P (glucosamine-6-phosphate [4]): < 1e-05 s⁻¹

U56A G66A
kcat (glucosamine-6-phosphate [1]): 0.00503 ± 0.0023 s⁻¹ | self-cleavage kobs at 40 uM GlcN6P (glucosamine-6-phosphate [3]): 0.000167 ± 1.7e-05 s⁻¹ | self-cleavage kobs at 160 uM GlcN6P (glucosamine-6-phosphate [7]): 0.00039 ± 6.4e-05 s⁻¹ | self-cleavage kobs at 640 uM GlcN6P (glucosamine-6-phosphate [5]): 0.00117 ± 0.00021 s⁻¹ | self-cleavage kobs at 2500 uM GlcN6P (glucosamine-6-phosphate [6]): 0.00253 ± 0.00043 s⁻¹ | self-cleavage kobs at 10000 uM GlcN6P (glucosamine-6-phosphate [4]): 0.00718 ± 0.0011 s⁻¹
